Data on 3 molecules can be found in US20060134740A1.

The target in data set [1] is subtilisin BPN' mutant S149 (Bacillus amyloliquefaciens) (UniProt P00782). The data set can be described thus: transient state kinetics with fluorogenic substrate.
Data set [2] has the same target. The data set can be described thus: transient state kinetics with fluorogenic substrates.
Data set [3] concerns the target fusion of the pR8 prodomain onto the N-terminus of the 56 amino acid B domain (GB) of streptococcal Protein G, P06654.

The star is where a group is joined. AMC = Cc1cc(=O)oc2cc(N*)ccc12

In data set [1], {code s}-DVRAF-{AMC} [fluorogenic substrate sDVRAF-AMC] displayed a Ks of 5 µM. In turn, {code s}-DFRAM-{AMC} [fluorogenic pentapeptide substrate sDFRAM-AMC] yielded a fold preference over sDVRAF-AMC in data set [2] of 5 fold. The same molecule registered a Ks in data set [1] of 1 µM.

B1: wild type subtilisin BPN' (protein)
chain: AQSVPYGVSQIKAPALHSQGYTGSNVKVAVIDSGIDSSHPDLKVAGGASMVPSETNPFQDNNSHGTHVAGTVAALNNSIGVLGVAPSASLYAVKVLGADGSGQYSWIINGIEWAIANNMDVINMSLGGPSGSAALKAAVDKAVASGVVVVAAAGNEGTSGSSSTVGYPGKYPSVIAVGAVDSSNQRASFSSVGPELDVMAPGVSIQSTLPGNKYGAYNGTSMASPHVAGAAALILSKHPNWTNTQVRSSLENTTTKLGDSFYYGKGLINVQAAAQ
Take B1: in data set [3], the “cleavage of the fusion protein” value was “The fusion protein was rapidly and specifically cleaved to release GB from pR8”.
